Results on 2 molecules are retold here after US9605038B2, “Fusion peptide comprising dhFas-1 domain and MMP substrate and use thereof for preventing and treating rheumatoid arthritis” (Kyungpook National University Industry-Academic Cooperation …, priority 2010, dated 2017).

Test [1] deals with collagen-induced arthritis (CIA) mouse model. Nature of the test: Arthritis therapeutic effect in CIA mouse (clinical arthritis index). It counts as in vivo. The procedure: A CIA mouse model having the similar characteristic to that of human rheumatoid arthritis was prepared according to the description in a known literature (Protocol for the successful induction of collagen-induced arthritis (CIA) and collagen antibody-induced arthritis (CAIA) in mice. Chondrex, Redmond, Wash.): Bovine type 2 collagen 100 ug was mixed with Freund's complete adjuvant, and hypodermically inoculated into the tail of the mouse. After 3 weeks, bovine type 2 collagen 100 ug was mixed with Freund's incomplete adjuvant, and inoculated again into the tail of the mouse. Then, the mouse was used in the experiment.
In order to find out the therapeutic effect of arthritis in a CIA model, for four weeks from the onset (the 23rd day) of arthritis following the second injection of the bovine type 2 collagen, MFK23 or MFK24 was daily injected into the abdominal cavity in doses of 0.1 mg/kg, 1 mg/kg, 10 mg/kg and 30 mg/kg. As a control group, the same amount of PBS was injected into the abdominal cavity. From the 23rd day to the 50th day, by using a Clinical arthritis index, the severity of arthritis was daily determined. The determination was based on the following data.
0; no symptom, 1; edema in one articulation or light edema, 2; severe edema in 2 or more articulations, 3; severe edema in most articulations, 4; severe edema in the whole of legs.

Test [2] has as its system foot tissue of CIA mouse (Synovial membrane, cartilage, bones; CD31, ICAM-1). Nature of the test: Histologic and immunohistochemistry test on foot tissue of CIA mouse. The conditions noted are these: CIA mouse foot tissue, 50th day, FIGS. 18 and 20. It counts as in vivo. The procedure:
In order to determine the action mechanism of an arthritis therapeutic effect in a CIA model, on the 50th day following the second injection of the bovine type 2 collagen (after 4 weeks from the onset (the 23rd day) of arthritis following the second injection of the bovine type 2 collagen), foot tissues of treatment groups were separated and subjected to histologic analysis. Then, in the tissues, a change in the expression of inflammatory mediators was examined.
A tissue sample was prepared by the following process. Skin on the foot tissue was removed. Then, the tissue was fixed in 10% formalin solution for 2 days, and demineralized in 10% EDTA solution. The demineralized tissue was subjected to a dehydrating process and a clearing process, paraffin-embedded, and was made into a fragment with a thickness of 3 um by a microtome. The tissue fragment was deparaffinized and re-dehydrated by 100% xylene and ethanol, and then non-specific peroxidase within the tissue was blocked by a solution of 0.3% hydrogen peroxide dissolved in 100% methanol.
In order to carry out an immunohistochemistry test, binding of non-specific protein was blocked by 5% BSA. Then, the tissue was cultured, together with each primary antibody (as endothelial cell markers, an antibody to CD31, and an antibody to ICAM-1 (intercellular adhesion molecule-1)), at 4° C. for 12 to 14 hours, and washed with washing buffer (0.1% BSA, 0.2% gelatin, 0.05% saponin). It was cultured together with a secondary antibody labeled with biotin at room temperature for 30 minutes, was washed, reacted with Vectastatin ABC kit (Vector Laboratories, U.S.), and was mounted with Eukitt mounting media (Fluka, Germany) for observation.

Another test addresses T1, cathepsin K (Homo sapiens, UniProt P43235).
T1 sequence (P43235 115-329): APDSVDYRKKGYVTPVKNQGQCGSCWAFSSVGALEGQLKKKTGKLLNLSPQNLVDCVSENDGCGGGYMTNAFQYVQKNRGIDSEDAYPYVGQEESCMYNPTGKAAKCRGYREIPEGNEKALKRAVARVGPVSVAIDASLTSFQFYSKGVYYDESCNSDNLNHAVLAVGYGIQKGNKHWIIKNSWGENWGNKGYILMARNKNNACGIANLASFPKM
The test is described as follows: Enzymatic digestion test, cathepsin K. It counts as biochemical. Conditions: 3 ug peptide, cathepsin K 10, 50, 100 ng, 37° C. 4 hours. The procedure:
3 ug of synthesized mdhFas-1-MMPsubstrate structure modified protein, together with MMP1 (5 ng, 10 ng and 50 ng), MMP2 (100 ng, 200 ng and 800 ng), MMP3 (10 ng, 50 ng and 100 ng), cathepsin D (5 ng, 10 ng and 50 ng), cathepsin L (100 ng, 200 ng and 800 ng), and cathepsin K (10 ng, 50 ng and 100 ng), was mixed with enzyme buffer (150 mM NaCl, 5 mM. CaCl2, 20 mM Tris-HCl pH7.5), and reacted at 37° C. for 4 hours. The resultant product was subjected to electrophoresis through 15% polyacrylamide gel, transferred to a Nitrocellulose Membrane (Schleicher & Schuell), blocked at room temperature for 1 hour with TBST solution containing 3% BSA (20 mmole/L Tris-HCl, 137 mmole//l NaCl, 0.1% Tween-20), washed TBST solution three times (each for 10 minutes), and reacted with primary antibody (anti-Histidine or anti-Bigh3) for 1 hour. The resultant product was washed with TBST solution three times (each for 10 minutes), reacted with a secondary antibody conjugated to horseradish peroxidase (HRP) for 1 hour, washed TBST solution three times (each for 10 minutes), and visualized by ECL (Amersham Biosciences, UK) so as to detect the change in the amount of mdhFas-1-MMPsubstrate-RGD structural peptide.

In the next test the test system is NIH3T3. The test is described as follows: βig-h3-mediated cell migration test (transwell), NIH3T3. It counts as cell-based, mouse. Conditions: 7 hours. How it is done: In the lower compartment of a transwell filter having an 8 um hole size allowing cells to be migrated, βig-h3 was cultured at 4° C. for 12 to 14 hours and coated. In DMEM+0.5% BSA culture medium, NIH3T3 was introduced, and administered with MFK23, MFK24 or MFK25 at concentrations, followed by mixing. The resultant mixture was cultured at 37° C. for 30 minutes, inoculated into the upper chamber of the coated well, and cultured for 7 hours at 37° C. Then, the cells migrated to the lower compartment of the filter were fixed by paraformaldehyde, and strained by a crystal violet. The cells […] remaining in the upper chamber were wiped out and the number of cells migrated to the lower compartment was microscopically counted.

Entries after “also recorded” stand apart in the source; their conditions may differ.

B1: MFK23: fusion peptide having sequential links of mdhFas-1, MMP2 substrate GPLGVRG (SEQ ID NO: 5), and QERGDSLA (SEQ ID NO: 10) (protein)
chain: QAMPPEELNKLLANAKELTNILKYHIGDEILVSGGIGALVRLKSLQGDKLEVSSKNNVVSVNKEPVAETDIMEFGPLGVRGVDGQERGDSLAGLE
modifications: MFK23
As for B1, the “arthritis inhibiting effect (clinical arthritis index), in words” value in test [1] (daily into the abdominal cavity) was “excellent effect on arthritis”. For the same molecule, in test [2], the “deformation of cartilage and bones (HE stain)” value is “reduced the deformation of cartilage and bones”; the “proliferation of a Synovial membrane cell (HE stain)” value is “inhibited the proliferation of a Synovial membrane cell”. Moreover, the “cleavage through treatment with cathepsin K” value in the test with cathepsin K was “not cleaved”. The βig-h3-mediated cell migration result with NIH3T3 was “inhibited the cell migration; also recorded: concentration-dependently inhibited”.

B2: MFK24: fusion peptide having sequential links of mdhFas-1, MMP1 substrate GPQGIAG (SEQ ID NO: 6), and QERGDSLA (SEQ ID NO: 10) (protein)
chain: QAMPPEELNKLLANAKELTNILKYHIGDEILVSGGIGALVRLKSLQGDKLEVSSKNNVVSVNKEPVAETDIMEFGPQGIAGVDGQERGDSLAGLE
modifications: MFK24
For B2, in test [1], the “concentration relative to conventional mdhFas-1 or MFK12 that shows a higher arthritis inhibiting effect” value is on record as 1/100. Moreover, the “arthritis inhibition (clinical arthritis index)” value in test [1] (0.1 mg/kg daily into the abdominal cavity, four weeks) is “about 70%”. In test [2], the “deformation of cartilage and bones (HE stain)” value is “reduced the deformation of cartilage and bones”; the “proliferation of a Synovial membrane cell (HE stain)” value is reported as “inhibited the proliferation of a Synovial membrane cell”. In addition, in the test with cathepsin K, the “cleavage through treatment with cathepsin K” value is recorded as “not cleaved”. Besides, the βig-h3-mediated cell migration result with NIH3T3 is “inhibited the cell migration; also recorded: concentration-dependently inhibited”.
